Five molecules from publication PMC9757077, “The B. subtilis Rok protein is an atypical H-NS-like protein irresponsive to physico-chemical cues” can be followed below.

Numbering of substitutions follows the chain as printed.

For data set [1], the system named is Rok Δ75-96 (Bacillus subtilis 168). In words: TPM. The settings on record: Hill n=5.7 ± 0.9; 50 mM KCl; MST: 10 mM Tris-HCl pH 8, 150 mM KCl, 5% glycerol, 0.05% Tween20, 0.08 mg/ml acetylated BSA, RT, 40 nM DNA; TPM: 50 mM KCl; bridging: 50 mM KCl ….
The target of data set [2] is T1, Rok (Bacillus subtilis 168, UniProt O34857 1-191).
T1 sequence: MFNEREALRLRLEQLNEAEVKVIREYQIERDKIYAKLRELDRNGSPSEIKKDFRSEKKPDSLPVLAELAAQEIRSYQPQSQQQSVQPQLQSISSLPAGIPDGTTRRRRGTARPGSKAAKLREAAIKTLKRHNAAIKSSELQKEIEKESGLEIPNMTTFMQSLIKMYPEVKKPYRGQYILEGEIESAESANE
In words: TPM. The note with it: Hill n=6.5 ± 0.4; 50 mM KCl; MST: 10 mM Tris-HCl pH 8, 150 mM KCl, 5% glycerol, 0.05% Tween20, 0.08 mg/ml acetylated BSA, RT, 40 nM DNA; TPM: 50 mM KCl; bridging: 50 mM KCl ….

For data set [3], the target named is Rok with a C-terminal His-tag (Rok-6xHis) (B. subtilis 168) (UniProt O34857).
Data set [4] deals with T1, Rok. In words: MST; no MgCl2; McGhee-von Hippel n=30 bp; MST: 10 mM Tris-HCl pH 8, 150 mM KCl, 5% glycerol, 0.05% Tween20, 0.08 mg/ml acetylated BSA, RT, 40 nM DNA; TPM: 50 mM KCl; bridging: 50 mM KCl, 25 C. The note with it: protein: recombinant; chain copies: 2; label: 5'-Cy5 top strand; blunt.
The target of data set [5] is T1, Rok. In words: MST; 10 mM MgCl2; MST: 10 mM Tris-HCl pH 8, 150 mM KCl, 5% glycerol, 0.05% Tween20, 0.08 mg/ml acetylated BSA, RT, 40 nM DNA; TPM: 50 mM KCl; bridging: 50 mM KCl, 25 C. The settings on record: protein: recombinant; chain copies: 2; label: 5'-Cy5 top strand; blunt.
The target of data set [6] is T1, Rok. In words: MST; up to 35 mM MgCl2; MST: 10 mM Tris-HCl pH 8, 150 mM KCl, 5% glycerol, 0.05% Tween20, 0.08 mg/ml acetylated BSA, RT, 40 nM DNA; TPM: 50 mM KCl; bridging: 50 mM KCl, 25 C. The note with it: protein: recombinant; chain copies: 2; label: 5'-Cy5 top strand; blunt.
The target in data set [7] is T1, Rok. In words: bridging pull-down; 0.27 uM Rok, bait N1; minimal bridged length; MST: 10 mM Tris-HCl pH 8, 150 mM KCl, 5% glycerol, 0.05% Tween20, 0.08 mg/ml acetylated BSA, RT, 40 nM DNA; TPM: 50 mM KCl; bridging: 50 mM KCl, 25 C. The note with it: protein: recombinant; chain copies: 2; label: 32P; blunt.

For 685 bp AT-rich (32% GC) DNA, the K half came out at 8.8 nM in data set [1] and 6.1 nM with Rok [2].
On to small Rok (sRok) (natural protein), for which, in data set [3], the DNA recovery (%) in the DNA bridging assay with different Rok:sRok ratios (total protein 0.5 uM, 50 mM KCl + 1 mM MgCl2, 25°C); value at 20% sRok; Rok here is the untagged protein was found to be 40%.

B1: MST aspecific 78 bp (dsDNA)
DNA 1: CGGCGCAAATTCGTGACCAGTTGCATCAGCTGCGTGAGCTGTTTATCGCAGCATCGTAACAGGATAGTGAAGAAGACT
DNA 2: AGTCTTCTTCACTATCCTGTTACGATGCTGCGATAAACAGCTCACGCAGCTGATGCAACTGGTCACGAATTTGCGCCG
By Kd is commonly meant the concentration at which binding is half-saturated. With B1, the Kd came out at 79.4 ± 20 µM with Rok [4] and 34.6 ± 8 µM in the data set with Rok [5].

B2: MST specific 78 bp (TACTA) (dsDNA)
DNA 1: B1 DNA 1 with G32A, G34T, T35A
DNA 2: B1 DNA 2 with A44T, C45A, C47T
Turning to B2, the Kd with Rok [6] is around 100 µM.

B3: 100 bp prey (dsDNA)
DNA 1: GATATATGGACTCTTAGTGGCAAATATATAATGTATAAGTTCTGGAGTAGTATGGTAATAACTATTTTATTTTCGATAGCTTGAATGTTTATTTTCCCAG
DNA 2: CTGGGAAAATAAACATTCAAGCTATCGAAAATAAAATAGTTATTACCATACTACTCCAGAACTTATACATTATATATTTGCCACTAAGAGTCCATATATC
For B3, the binding result in the data set with Rok [7] is “binds”.
